Laboratory results as given in patent US7070788.

What was measured:
[1] = molecular target: hCG (LH/CG) receptor of MA-10 transformed murine Leydig cells (murine) (UniProt P30730); assay: cell-based or functional assay
[2] = molecular target: human TSH receptor (CHO-JP09 cells) (human) (UniProt P16473); assay: cell-based or functional assay
[3] = molecular target: porcine TSH receptor (solubilized porcine thyroid membranes) (porcine) (UniProt Q8SPP9); assay: competitive displacement of 125I-bTSH from solubilized porcine thyroid membranes
[4] = molecular target: porcine TSH receptor (solubilized porcine thyroid membranes) (porcine) (UniProt Q8SPP9); assay: competitive binding assay to porcine thyroid membranes
[5] = molecular target: rat TSH receptor (FRTL-5 cells) (rat) (UniProt P21463); assay: cell-based or functional assay
[6] = molecular target: hCG (LH/CG) receptor of MA-10 transformed murine Leydig cells (murine) (UniProt P30730); assay: competitive binding with 125I-hCG on MA-10 cells

Chain of hCG (LH/CG) receptor of MA-10 transformed murine Leydig cells (murine) (P30730 27-700): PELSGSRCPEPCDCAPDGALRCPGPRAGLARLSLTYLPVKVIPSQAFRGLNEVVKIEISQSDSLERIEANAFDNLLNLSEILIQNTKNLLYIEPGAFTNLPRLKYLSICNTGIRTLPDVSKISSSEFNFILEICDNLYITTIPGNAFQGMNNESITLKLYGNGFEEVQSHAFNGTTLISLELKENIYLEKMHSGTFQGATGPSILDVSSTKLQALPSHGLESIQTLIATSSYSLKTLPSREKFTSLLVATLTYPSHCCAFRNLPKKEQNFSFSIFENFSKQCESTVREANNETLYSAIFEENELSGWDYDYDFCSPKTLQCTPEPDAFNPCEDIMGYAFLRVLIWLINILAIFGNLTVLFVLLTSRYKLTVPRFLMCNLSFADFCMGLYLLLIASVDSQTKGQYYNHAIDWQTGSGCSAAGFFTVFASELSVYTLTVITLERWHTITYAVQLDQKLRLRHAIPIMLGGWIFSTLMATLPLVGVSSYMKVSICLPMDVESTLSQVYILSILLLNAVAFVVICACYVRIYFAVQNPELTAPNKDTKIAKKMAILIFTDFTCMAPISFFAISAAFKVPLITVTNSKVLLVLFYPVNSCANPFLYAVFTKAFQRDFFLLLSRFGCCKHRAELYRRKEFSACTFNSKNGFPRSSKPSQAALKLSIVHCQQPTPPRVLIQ
Chain of rat TSH receptor (FRTL-5 cells) (rat) (P21463 22-764): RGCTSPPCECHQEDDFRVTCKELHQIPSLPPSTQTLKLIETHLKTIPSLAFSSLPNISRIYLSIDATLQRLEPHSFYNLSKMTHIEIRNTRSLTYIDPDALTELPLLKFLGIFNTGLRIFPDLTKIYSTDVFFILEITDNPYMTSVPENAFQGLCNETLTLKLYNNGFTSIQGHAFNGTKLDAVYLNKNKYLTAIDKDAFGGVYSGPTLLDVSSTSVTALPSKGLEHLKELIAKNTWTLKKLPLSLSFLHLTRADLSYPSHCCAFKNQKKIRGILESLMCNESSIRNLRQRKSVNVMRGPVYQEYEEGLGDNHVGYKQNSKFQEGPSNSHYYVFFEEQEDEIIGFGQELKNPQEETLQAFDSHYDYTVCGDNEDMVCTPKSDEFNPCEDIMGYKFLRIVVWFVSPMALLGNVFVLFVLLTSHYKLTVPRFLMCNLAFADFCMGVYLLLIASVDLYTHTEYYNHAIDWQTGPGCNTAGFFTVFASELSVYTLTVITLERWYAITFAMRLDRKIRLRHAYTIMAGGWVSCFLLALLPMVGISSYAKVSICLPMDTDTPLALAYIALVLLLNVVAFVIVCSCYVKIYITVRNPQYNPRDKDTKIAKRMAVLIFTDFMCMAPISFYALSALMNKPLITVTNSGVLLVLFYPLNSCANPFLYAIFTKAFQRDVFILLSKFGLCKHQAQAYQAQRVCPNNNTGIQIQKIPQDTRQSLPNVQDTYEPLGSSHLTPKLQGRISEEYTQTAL
Chain of porcine TSH receptor (solubilized porcine thyroid membranes) (porcine) (Q8SPP9 22-764): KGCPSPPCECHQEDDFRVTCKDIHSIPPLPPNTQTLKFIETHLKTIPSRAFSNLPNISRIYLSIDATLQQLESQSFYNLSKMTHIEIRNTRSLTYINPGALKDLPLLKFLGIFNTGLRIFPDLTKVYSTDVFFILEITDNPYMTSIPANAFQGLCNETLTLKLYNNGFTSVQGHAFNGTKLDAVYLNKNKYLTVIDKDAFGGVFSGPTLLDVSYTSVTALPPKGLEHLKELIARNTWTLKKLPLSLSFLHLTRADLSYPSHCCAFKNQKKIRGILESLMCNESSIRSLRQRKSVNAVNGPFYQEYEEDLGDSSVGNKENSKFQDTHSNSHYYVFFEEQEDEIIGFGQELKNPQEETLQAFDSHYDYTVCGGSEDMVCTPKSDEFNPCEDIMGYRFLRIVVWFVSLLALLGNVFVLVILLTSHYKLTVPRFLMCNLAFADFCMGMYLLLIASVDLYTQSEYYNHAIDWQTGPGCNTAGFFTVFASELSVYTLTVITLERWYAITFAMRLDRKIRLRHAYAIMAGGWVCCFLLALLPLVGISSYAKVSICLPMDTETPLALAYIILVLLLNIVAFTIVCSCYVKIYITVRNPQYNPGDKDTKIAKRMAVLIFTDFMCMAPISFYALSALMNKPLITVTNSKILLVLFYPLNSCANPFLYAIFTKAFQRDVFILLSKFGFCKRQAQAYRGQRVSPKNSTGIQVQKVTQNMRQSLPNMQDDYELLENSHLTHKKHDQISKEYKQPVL

| Substance | Progesterone synthesis in MA10 cells, EC50 [1] [ng/mL] | Progesterone synthesis in MA10 cells, Max (%) [1] | EC25 of inhibition of 125I-bTSH binding [3] [ng/mL] | cAMP stimulation in JP09 cells, EC50 [2] [ng/mL] | cAMP stimulation in JP09 cells, Relative potency (WT = 1) (fold (WT = 1)) [2] | other results |
| --- | --- | --- | --- | --- | --- | --- |
| hCG α-subunit mutant Q13K (from UniProt P01215 25-116; P0DN86 21-165) (ligand) | 2.46 | 115 % of WT-hCG | – | – | – | – |
| hTSH β-subunit mutant I58R+E63R+L69R (from UniProt P01215 25-116; P01222 21-132) (ligand) | – | – | – | – | – | efficacy relative to wild type hTSH (cAMP stimulation, FIG. 2g) [2]: 1.7 fold; potency relative to wild type hTSH (cAMP stimulation, FIG. 2g) [2]: 50 fold |
| hTSH α-subunit double mutant P16K + Q20K (from UniProt P01215 25-116; P01222 21-132) (ligand) | – | – | 6.4 | 0.57 | 11.8 | – |
| hTSH α-subunit triple mutant Q13K + P16K + Q20K with WT-hTSHβ (from UniProt P01215 25-116; P01222 21-132) (ligand) | – | – | 2.3 | 0.28 | 23.9 | fold lower concentration than WT-hTSH for half-maximal stimulation of 3H-thymidine incorporation in FRTL-5 cells [5]: 18 fold |
| hTSH β-subunit mutant I58R (from UniProt P01215 25-116; P01222 21-132) (ligand) | – | – | – | – | – | potency relative to hTSH [5]: 2 to 4 fold; potency relative to hTSH [2]: 2 to 4 fold |
| hCG α-subunit mutant P16K with WT-hCGβ (from UniProt P01215 25-116; P0DN86 21-165) (ligand) | 2.05 | 161 % of WT-hCG | – | – | – | progesterone release assay, fold potency over wild type [1]: 3.4 fold; stimulation of progesterone production in MA-10 cells, fold over WT-hCG [1]: 4 fold; fold receptor binding activity over WT-hCG [6]: 4 fold |
| hTSH α-subunit mutant Q13K (from UniProt P01215 25-116; P01222 21-132) (ligand) | – | – | 22.5 | 1.89 | 3.5 | – |
| hTSH β-subunit mutant TSHβ-L69R (from UniProt P01215 25-116; P01222 21-132) (ligand) | – | – | – | 2.75 | 2.4 | – |
| hCG α-subunit double mutant P16K + Q20K (from UniProt P01215 25-116; P0DN86 21-165) (ligand) | 1.7 | 212 % of WT-hCG | – | – | – | – |
| hTSH α-subunit mutant R67K (from UniProt P01215 25-116; P01222 21-132) (ligand) | – | – | 62.5 | 7.36 | 0.9 | – |
| hCG α-subunit mutant Q50P (from UniProt P01215 25-116; P0DN86 21-165) (ligand) | 3.9 | 137 % of WT-hCG | – | – | – | – |
| hCG α-subunit mutant Q20K (from UniProt P01215 25-116; P0DN86 21-165) (ligand) | 2.98 | 134 % of WT-hCG | – | – | – | – |
| hTSH β-subunit mutant I58R+E63R (from UniProt P01215 25-116; P01222 21-132) (ligand) | – | – | – | – | – | efficacy relative to wild type hTSH (cAMP stimulation, FIG. 2g) [2]: 1.5 fold; potency relative to wild type hTSH (cAMP stimulation, FIG. 2g) [2]: 15 fold |
| hTSH mutant TSHβ-L69R + α Q13K + P16K + Q20K + E14K (from UniProt P01215 25-116; P01222 21-132) (ligand) | – | – | 1.3 | 0.07 | 95.7 | efficacy (maximal response) of cAMP stimulation in CHO-JP09 cells, fold over WT-hTSH [2]: 1.5 fold |
| hTSH β-subunit mutant E63R (from UniProt P01215 25-116; P01222 21-132) (ligand) | – | – | – | – | – | potency relative to hTSH [5]: 2 to 4 fold; potency relative to hTSH [2]: 2 to 4 fold |

Second part, led by results:

| Progesterone synthesis in MA10 cells, EC50 [1] [ng/mL] | Progesterone synthesis in MA10 cells, Max (%) [1] | EC25 of inhibition of 125I-bTSH binding [3] [ng/mL] | cAMP stimulation in JP09 cells, EC50 [2] [ng/mL] | cAMP stimulation in JP09 cells, Relative potency (WT = 1) (fold (WT = 1)) [2] | Substance | other results |
| --- | --- | --- | --- | --- | --- | --- |
| – | – | 18.3 | 1.05 | 6.4 | hTSH α-subunit mutant P16K (from UniProt P01215 25-116; P01222 21-132) (ligand) | fold greater affinity than WT-hTSH [4]: 5 fold |
| – | – | 68.3 | 4.47 | 1.5 | hTSH α-subunit mutant T11K (from UniProt P01215 25-116; P01222 21-132) (ligand) | – |
| 4.6 | 145 % of WT-hCG | – | – | – | hCG α-subunit mutant R67K (from UniProt P01215 25-116; P0DN86 21-165) (ligand) | – |
| – | – | 2.1 | 0.17 | 39.4 | hTSH α-subunit quadruple mutant Q13K + P16K + Q20K + E14K (from UniProt P01215 25-116; P01222 21-132) (ligand) | efficacy (maximal response) of cAMP stimulation in CHO-JP09 cells, fold over WT-hTSH [2]: 1.5 fold |
| 1.58 | 216 % of WT-hCG | – | – | – | hCG α-subunit triple mutant Q13K + P16K + Q20K (from UniProt P01215 25-116; P0DN86 21-165) (ligand) | – |
| – | – | 77.5 | 5.54 | 1.2 | hTSH α-subunit mutant Q50P (from UniProt P01215 25-116; P01222 21-132) (ligand) | – |
| – | – | 1.8 | 0.19 | 35.3 | hTSH mutant TSHβ-L69R + α Q13K + P16K + Q20K (from UniProt P01215 25-116; P01222 21-132) (ligand) | fold lower concentration than WT-hTSH for half-maximal stimulation of 3H-thymidine incorporation in FRTL-5 cells [5]: 27 fold |
| 2.79 | 156 % of WT-hCG | – | – | – | hCG α-subunit mutant T11K (from UniProt P01215 25-116; P0DN86 21-165) (ligand) | – |
| – | – | 21.3 | 1.16 | 5.8 | hTSH α-subunit mutant Q20K (from UniProt P01215 25-116; P01222 21-132) (ligand) | – |
| 1.65 | 205 % of WT-hCG | – | – | – | hCG α-subunit quadruple mutant Q13K + P16K + Q20K + E14K (from UniProt P01215 25-116; P0DN86 21-165) (ligand) | – |
| – | – | – | 3.52 | 1.9 | hTSH α-subunit mutant P16K + F17T (from UniProt P01215 25-116; P01222 21-132) (ligand) | – |
